Assay results taken from PMC4013717, “AFF4 binding to Tat-P-TEFb indirectly stimulates TAR recognition of super elongation complexes at the HIV promoter” (eLife, 2014).

Key:
[1] = tested on: Cyclin T1 (P-TEFb subunit);CDK9 (P-TEFb subunit);HIV-1 Tat;AFF4 2-73 (human;not given;HIV-1;not given); test: EMSA
[2] = tested on: Cyclin T1 (P-TEFb subunit);CDK9 (P-TEFb subunit);HIV-1 Tat;AFF4 32-67 (human;not given;HIV-1;not given); test: EMSA
[3] = tested on: Cyclin T1 (P-TEFb subunit);CDK9 (P-TEFb subunit);HIV-1 Tat;AFF4 2-98 (human;not given;HIV-1;not given); test: EMSA
[4] = biological target: Tat-P-TEFb complex (HIV-1 Tat 1–57, CDK9 1–330, cyclin T1 1–264) (HIV-1 | human) (UniProt P04608)
[5] = biological target: Tat-P-TEFb complex (HIV-1 Tat 1–57, CDK9 1–330, cyclin T1 1–264) (HIV-1 | human, UniProt P04608 1-57; P50750 1-330; O60563 1-264, N-terminally acetylated (N-acetyl group on M1)); test: cell-based or functional assay
[6] = biological target: T1, human cyclin T1 1–264 (human, UniProt O60563 1-264); test: crystal structure; quaternary complex of Tat 1–57, AFF4 2–73, CDK9 1–330 and CycT1 1–264; 3.0 Å; three complexes in the a.u.; crystals from 2.4 M sodium formate, 10 mM MgCl2 at 18°C; conditions: both partners purified
T1 construct: human cyclin T1, residues 1-264; also called CycT1
T1 sequence (O60563 1-264): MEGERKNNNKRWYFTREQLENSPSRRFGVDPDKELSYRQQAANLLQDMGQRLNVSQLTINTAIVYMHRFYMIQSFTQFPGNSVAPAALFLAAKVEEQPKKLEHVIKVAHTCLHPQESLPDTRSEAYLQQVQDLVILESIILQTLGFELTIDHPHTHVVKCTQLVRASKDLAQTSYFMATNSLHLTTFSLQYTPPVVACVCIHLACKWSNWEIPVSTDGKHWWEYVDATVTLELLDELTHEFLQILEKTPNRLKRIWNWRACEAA

[7] = biological target: T2, human CDK9 1–330 (human, UniProt P50750 1-330); test: as above; conditions: both partners purified
T2 construct: human CDK9, residues 1-330
T2 sequence (P50750 1-330): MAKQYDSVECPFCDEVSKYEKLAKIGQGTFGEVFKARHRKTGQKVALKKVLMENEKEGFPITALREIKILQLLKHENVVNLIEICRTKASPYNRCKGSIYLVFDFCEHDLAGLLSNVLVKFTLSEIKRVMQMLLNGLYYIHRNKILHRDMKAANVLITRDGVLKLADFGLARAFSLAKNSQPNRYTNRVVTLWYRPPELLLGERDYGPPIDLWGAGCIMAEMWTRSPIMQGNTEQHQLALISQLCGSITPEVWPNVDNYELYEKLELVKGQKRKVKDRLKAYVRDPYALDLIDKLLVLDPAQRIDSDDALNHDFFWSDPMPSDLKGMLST

TAR RNA (nucleotides 18-44)
K half [1]: 1.1 nM
K half [2]: 1.1 nM
K half [3]: 1.1 nM

SPLFAEPYKVTSKEDKLSSRIQSMLGNYDEMKDFIG (domain or fragment) [AFF4 fragment 32–67]
EMSA with 32P-labeled TAR RNA and Tat-P-TEFb in the presence of excess AFF4 32–67: increase of the affinity for TAR [4]: 30 fold

B1: AFF4 fragment 2–98 (domain or fragment)
chain: NREDRNVLRMKERERRNQEIQQGEDAFPPSSPLFAEPYKVTSKEDKLSSRIQSMLGNYDEMKDFIGDRSIPKLVAIPKPTVPPSADEKSNPNFFEQR
EMSA with 32P-labeled TAR RNA and Tat-P-TEFb in the presence of excess AFF4 2–98: increase of the affinity for TAR [4]: 30 fold

B2: AFF4 fragment 2–73 (domain or fragment, UniProt Q9UHB7 2-73, looked up)
chain: NREDRNVLRMKERERRNQEIQQGEDAFPPSSPLFAEPYKVTSKEDKLSSRIQSMLGNYDEMKDFIGDRSIPK
notes: AFF4 (SEC scaffold), residues 2-73; The His-tag is TEV-protease-cleavable; also called AFF4_(2–73); source: E. coli, purified
EMSA with 32P-labeled TAR RNA and Tat-P-TEFb in the presence of excess AFF4 2–73: increase of the affinity for TAR [5]: 30 fold
binding result [6]: binds
binding result [7]: binds
